Data set [1] addresses T1, 14 amino acid FGE substrate peptide ALCTPSRGSLFTGR
T1 chain: ALCTPSRGSLFTGR

Data set [2] concerns the target T2, Streptomyces coelicolor formylglycine-generating enzyme (Sc-FGE), wild-type, with N-terminal hexahistidine … (Streptomyces coelicolor, UniProt Q9F3C7 1-314).
T2 construct: Made in E. coli BL21(DE3); also called S. coelicolor FGE; not shown: N-terminal hexahistidine tag and TEV protease cleavage site from the pET151-D/TOPO vector
T2 sequence (looked up): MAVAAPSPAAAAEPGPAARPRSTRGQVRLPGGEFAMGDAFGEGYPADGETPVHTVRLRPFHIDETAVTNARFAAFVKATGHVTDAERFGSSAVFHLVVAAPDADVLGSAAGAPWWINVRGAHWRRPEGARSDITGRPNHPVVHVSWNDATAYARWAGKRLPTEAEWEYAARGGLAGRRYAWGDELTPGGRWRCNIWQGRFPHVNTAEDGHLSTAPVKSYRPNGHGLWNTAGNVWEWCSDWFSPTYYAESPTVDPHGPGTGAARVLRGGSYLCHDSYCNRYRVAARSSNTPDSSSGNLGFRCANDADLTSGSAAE
The experiment in a line: Michaelis-Menten kinetics from discontinuous RP-HPLC activity assay.

B1: Streptomyces coelicolor formylglycine-generating enzyme (Sc-FGE), wild-type, with N-terminal hexahistidine tag and TEV protease cleavage site, activated with … (protein)
chain: MAVAAPSPAAAAEPGPAARPRSTRGQVRLPGGEFAMGDAFGEGYPADGETPVHTVRLRPFHIDETAVTNARFAAFVKATGHVTDAERFGSSAVFHLVVAAPDADVLGSAAGAPWWINVRGAHWRRPEGARSDITGRPNHPVVHVSWNDATAYARWAGKRLPTEAEWEYAARGGLAGRRYAWGDELTPGGRWRCNIWQGRFPHVNTAEDGHLSTAPVKSYRPNGHGLWNTAGNVWEWCSDWFSPTYYAESPTVDPHGPGTGAARVLRGGSYLCHDSYCNRYRVAARSSNTPDSSSGNLGFRCANDADLTSGSAAE
Turning to B1, in data set [1], the KM result is recorded as “KM=96 µM”.

B2: Catalytic core of H. sapiens formylglycine-generating enzyme with TEV protease site and C-terminal His6 tag (Hs-cFGE) (protein)
chain: DRSLEANAPGPVPGERQLAHSKMVPIPAGVFTMGTDDPQIKQDGEAPARRVTIDAFYMDAYEVSNTEFEKFVNSTGYLTEVAAAPWWLPVKGANWRHPEGPDSTILHRPDHPVLHVSWNDAVAYCTWAGKRLPTEAEWEYSCRGGLHNRLFPWGNKLQPKGQHYANIWQGEFPVTNTGEDGFQGTAPVDAFPPNGYGLYNIVGNAWEWTSDWWTVHHSVEETLNPKGPPSGKDRVKKGGSYMCHRSYCYRYRCAARSQNTPDSSASNLGFRCAADRLPTMDKGENLYFQGHHHHHH
For the molecule B2, the KM result in data set [1] was “KM=0.34 µM”.

B3: 14 amino acid FGE substrate peptide ALCTPSRGSLFTGR (peptide)
peptide: ALCTPSRGSLFTGR
notes: Used as substrate for both the Sc and Hs forms of the enzyme; also called Csub
In the case of B3, the binding result in data set [2] is “binds”.

The values are drawn from patent publication US20160230205A1 (R P SCHERER TECHNOLOGIES, published 2016).
